Results as given in publication PMC5524996.

Target: IssA (iron-sulfur storage protein A), native thioferrate-bound nanoparticle form from Pyrococcus furiosus (Pyrococcus furiosus)
Assay: negative stain TEM; purified native IssA, untreated (20-300 nm) and after 3 M guanidinium chloride, 0.5 mM EDTA, 25 mM DTT (16-22 nm spheres); composition estimated from the volume of a 20 nm sphere, densities and the Fe:protein ratio

stoichiometry N: 170
Substance: IssA (iron-sulfur storage protein A), native thioferrate-bound nanoparticle form from Pyrococcus furiosus (natural protein)
